One data set has as its system hMSCs. Kind of data set: Cell proliferation (CCK-8). Conditions: for cell proliferation: 3 or 5 days of culture. The format is cell-based, human. The protocol:
Cell proliferation. Five groups of samples were added to an untreated 96-well plate for the cell proliferation experiment. For the JBNT group, 3.75 μL of 1 mg mL^−1 JBNTs was added to 596.25 μL distilled water to obtain a 600 μL JBNT solution. The concentration of the solution was 6.25 μg mL^−1. For the TGF-β1 group, 7.5 μL of 10 μg mL^−1 TGF-β1 was dispersed in 592.5 μL distilled water to obtain a 0.125 μg mL^−1 test solution. For the matrilin-3 group, 30 μL of 10 μg mL^−1 matrilin-3 was dispersed in 570 μL distilled water to obtain a 0.5 μg mL^−1 test solution. For the J/T/M NM group, 7.5 μL of 10 μg mL^−1 TGF-β1 was mixed with 30 μL of 10 μg mL^−1 matrilin-3 and pipetted several times. Then, 3.75 μL of 1 mg mL^−1 JBNTs was added to the solution and pipetted. The J/T/M NM solution was diluted with 558.75 μL distilled water. The final concentrations of JBNT, TGF-β1, and matrilin-3 samples were 6.25 μg mL^−1, 0.125 μg mL^−1, and 0.5 μg mL^−1, respectively. As a control group, 600 μL distilled water was used. Each sample group was divided into 6 wells, with each well receiving a 100 μL sample. The three plates were placed into a −80° C. freezer for one hour and then freeze-dried with a lyophilized instrument.
hMSCs were seeded onto these plates. Each well received 100 μL cell suspension containing 5,000 cells. Three plates were incubated at 37° C. for 1 day, 3 days, or 5 days (5% CO2). After incubation, 10 μL CCK-8 solution was added to each well with cells. Then, each plate was incubated at 37° C. for another 2 h. The absorption values of the plates were measured with multi-mode microplate readers at 450 nm. A series of a known number of hMSCs were seeded onto a 96-well plate. After incubating for 4 h, the absorption values of the cells were measured with the CCK-8 assay. A standard curve was generated according to the absorption values and the numbers of hMSCs. Cell proliferation was calculated with the absorption standard curve.

The conditions of data set [1]: free TGF-β1; cited from earlier work.
The next data set can be described thus: Zeta-potential test. The format is physicochemical. As to conditions: dispersed in H2O. As to the method:
Zeta-potential test. Three groups of samples were prepared. For the matrilin-3 group, 160 μL of 10 μg mL^−1 matrilin-3 was dispersed in 640 μL H2O to obtain an 800 μL test solution. For the mixed matrilin-3/TGF-β1 group, 160 μL of 10 μg mL^−1 matrilin-3 was mixed with 40 μL of 10 μg mL^−1 TGF-β1 and pipetted several times. The mixture was then dispersed in 600 μL H2O to obtain an 800 μL test solution. For the J/T/M NM group, 160 μL of 10 μg mL^−1 matrilin-3 was mixed with 40 μL of 10 μg mL^−1 TGF-β1 and pipetted several times. Then, 20 μL of 1 mg mL^−1 JBNTs was added to the solution and pipetted several times. Finally, the J/T/M NM solution was dispersed in 580 μL H2O to obtain an 800 μL test solution. The zeta-potential values of the three groups of samples were tested with a Zetasizer Nano ZS.

Bounds are passed on as bounds.

On to “TGF-β1: Recombinant human TGF-β1 (CHO derived, PeproTech), chondrogenic growth factor”, for which the cell proliferation result in the data set on hMSCs was “more obvious effects related to the promotion of cell proliferation”. In addition, the “cell number (proliferation)” value in the data set with hMSCs (one day of culture) is “significantly higher cell numbers”. Further, in data set [1], the plasma half-life was below 1.67 h.

B1: matrilin-3: Recombinant human matrilin-3 protein (R&D Systems), cartilage-specific ECM protein (protein, UniProt O15232 29-486, looked up)
Matrilin-3: DPVARPGFRRLETRGPGGSPGRRPSPAAPDGAPASGTSEPGRARGAGVCKSRPLDLVFIIDSSRSVRPLEFTKVKTFVSRIIDTLDIGPADTRVAVVNYASTVKIEFQLQAYTDKQSLKQAVGRITPLSTGTMSGLAIQTAMDEAFTVEAGAREPSSNIPKVAIIVTDGRPQDQVNEVAARAQASGIELYAVGVDRADMASLKMMASEPLEEHVFYVETYGVIEKLSSRFQETFCALDPCVLGTHQCQHVCISDGEGKHHCECSQGYTLNADKKTCSALDRCALNTHGCEHICVNDRSGSYHCECYEGYTLNEDRKTCSAQDKCALGTHGCQHICVNDRTGSHHCECYEGYTLNADKKTCSVRDKCALGSHGCQHICVSDGAASYHCDCYPGYTLNEDKKTCSATEEARRLVSTEDACGCEATLAFQDKVSSYLQRLNTKLDDILEKLKINEYGQIHR
With B1, in the data set on hMSCs, the cell proliferation result was “moderately increase cell proliferation”. Also, in “Zeta-potential test”, the zeta-potential result was “approximately −15 mV”.

The values are drawn from patent US20230372536A1, “NANOMATERIAL AND METHODS OF USE THEREOF” (UNIVERSITY OF CONNECTICUT, priority 2020, published 2023).
